What was measured:
[1] = tested on: CYP82E10 nicotine demethylase; experiment: Nicotine demethylase assay, yeast microsomal membranes with [14C]-nicotine, CYP82E10 and variants; assay type: biochemical, tobacco; set-up: Activity of Mutant Enzyme: concentration or dose not given beside the values; details: for Activity of Mutant Enzyme: relative to the wild type enzyme when expressed in yeast; for nicotine demethylase (enzyme) activity, result in words: [14C]-nicotine
From the text: To determine whether CYP82E10 functions as a nicotine demethylase gene, its cDNA was cloned into the yeast expression vector pYeDP60 and transformed into yeast strain W(R). Strain W(R) is a yeast cell line that was engineered to overexpress the yeast NADPH-dependent P450 reductase, an enzyme that serves as the direct electron donor to P450s; this system greatly enhances the detection of foreign P450 enzyme activities that are expressed in yeast (Pompon et al., 1995). Nicotine demethylase assays were conducted by incubating yeast microsomal membrane preparations with [^14C]-nicotine, and resolving the products by thin layer chromatography as described in Siminszky et al. (2005).
The nucleotide and amino acid residues mutated in these plants are also highlighted in FIG. 1. Although no truncation mutations were observed among these individuals, in several cases, mutations were identified that altered an amino acid residue within a highly conserved region of the enzyme. To determine the effects of a particular mutation on CYP82E10 enzyme activity, site-directed mutagenesis was used to introduce the specific mutations corresponding to seven of the nine mutations shown in Table 2 into the CYP82E10 cDNA within the pYeDP60 yeast expression vector. Microsomal preparations from yeast strains expressing each of the seven CYP82E10 variants were assayed in vitro for nicotine demethylase activity using both non-saturating (2.45 μM) and saturating (50 μM) concentrations of [^14C]-nicotine.

[2] = tested on: CYP82E4 nicotine demethylase

Molecule	Activity of Mutant Enzyme [1]	nicotine demethylase (enzyme) activity, result in words ([1]; yeast microsomes)	nicotine demethylase activity relative to the wild-type CYP82E10 polypeptide [1]	reduction in activity compared to the wild type CYP82E10 enzyme ([1]; yeast microsomes, 2.45 μM and 50 μM [14C]-nicotine) [%]	loss of nicotine demethylase activity from mutation (knocked out) [1] [%]	inhibition of nicotine demethylase activity (knocked out) [2] [%]
Plant 693: CYP82E10 mutant enzyme R417H (mutation G1250A) from plant 693 (protein, listed as Nicotiana tabacum, CYP82E10 R417H Variant) MVSPVEAIVGLVTLTLLFYFIRTKKSQKPSKPLPPKIPGGWPVIGHLFYFDDDSDDRPLARKLGDLADKYGPVFTFRLGLPLVLVVSSYEAIKDCFSTNDAIFSNRPAFLYGEYLGYNNAMLFLTKYGPYWRKNRKLVIQEVLCASRLEKLKHVRFGEIQTSIKNLYTRIDGNSSTINLTDWLEELNFGLIVKMIAGKNYESGKGDEQVERFRKAFKDFIILSMEFVLWDAFPIPLFKWVDFQGHVKAMKRTFKDIDSVFQNWLEEHVKKKEKMEVNAEGNEQDFIDVVLSKMSNEYLDEGYSRDTVIKATVFSLVLDAADTVALHMNWGMALLINNQHALKKAQEEIDKKVGKDRWVEESDIKDLVYLQTIVKEVLRLYPPGPLLVPHENVEDCVVSGYHIPKGTRLFANVMKLQHDPKLWSNPDKFDPERFFAADIDFRGQHYEFIPFGSGRRSCPGMTYAMQVEHLTIAHLIQGFNYKTPNDEPLDMKEGAGLTIRKVNPIEVVITPRLTPELY	100%	did not alter enzyme activity				
Plant 1442: CYP82E10 mutant enzyme P419S (mutation C1255T) from plant 1442 (protein, listed as Nicotiana tabacum, CYP82E10 P419S Variant) MVSPVEAIVGLVTLTLLFYFIRTKKSQKPSKPLPPKIPGGWPVIGHLFYFDDDSDDRPLARKLGDLADKYGPVFTFRLGLPLVLVVSSYEAIKDCFSTNDAIFSNRPAFLYGEYLGYNNAMLFLTKYGPYWRKNRKLVIQEVLCASRLEKLKHVRFGEIQTSIKNLYTRIDGNSSTINLTDWLEELNFGLIVKMIAGKNYESGKGDEQVERFRKAFKDFIILSMEFVLWDAFPIPLFKWVDFQGHVKAMKRTFKDIDSVFQNWLEEHVKKKEKMEVNAEGNEQDFIDVVLSKMSNEYLDEGYSRDTVIKATVFSLVLDAADTVALHMNWGMALLINNQHALKKAQEEIDKKVGKDRWVEESDIKDLVYLQTIVKEVLRLYPPGPLLVPHENVEDCVVSGYHIPKGTRLFANVMKLQRDSKLWSNPDKFDPERFFAADIDFRGQHYEFIPFGSGRRSCPGMTYAMQVEHLTIAHLIQGFNYKTPNDEPLDMKEGAGLTIRKVNPIEVVITPRLTPELY	25%		about 25%	75		
Plant 1512: CYP82E10 mutant enzyme P107S (mutation C319T) from EMS treated DH98-325-6 plant 1512 (protein, listed as Nicotiana tabacum, CYP82E10 P107S Variant) MVSPVEAIVGLVTLTLLFYFIRTKKSQKPSKPLPPKIPGGWPVIGHLFYFDDDSDDRPLARKLGDLADKYGPVFTFRLGLPLVLVVSSYEAIKDCFSTNDAIFSNRSAFLYGEYLGYNNAMLFLTKYGPYWRKNRKLVIQEVLCASRLEKLKHVRFGEIQTSIKNLYTRIDGNSSTINLTDWLEELNFGLIVKMIAGKNYESGKGDEQVERFRKAFKDFIILSMEFVLWDAFPIPLFKWVDFQGHVKAMKRTFKDIDSVFQNWLEEHVKKKEKMEVNAEGNEQDFIDVVLSKMSNEYLDEGYSRDTVIKATVFSLVLDAADTVALHMNWGMALLINNQHALKKAQEEIDKKVGKDRWVEESDIKDLVYLQTIVKEVLRLYPPGPLLVPHENVEDCVVSGYHIPKGTRLFANVMKLQRDPKLWSNPDKFDPERFFAADIDFRGQHYEFIPFGSGRRSCPGMTYAMQVEHLTIAHLIQGFNYKTPNDEPLDMKEGAGLTIRKVNPIEVVITPRLTPELY	Not detected	complete enzyme inactivation			100	
Plant 1035: CYP82E10 mutant enzyme A344T (mutation G1030A) from plant 1035 (protein, listed as Nicotiana tabacum, CYP82E10 A344T Variant) MVSPVEAIVGLVTLTLLFYFIRTKKSQKPSKPLPPKIPGGWPVIGHLFYFDDDSDDRPLARKLGDLADKYGPVFTFRLGLPLVLVVSSYEAIKDCFSTNDAIFSNRPAFLYGEYLGYNNAMLFLTKYGPYWRKNRKLVIQEVLCASRLEKLKHVRFGEIQTSIKNLYTRIDGNSSTINLTDWLEELNFGLIVKMIAGKNYESGKGDEQVERFRKAFKDFIILSMEFVLWDAFPIPLFKWVDFQGHVKAMKRTFKDIDSVFQNWLEEHVKKKEKMEVNAEGNEQDFIDVVLSKMSNEYLDEGYSRDTVIKATVFSLVLDAADTVALHMNWGMALLINNQHALKKTQEEIDKKVGKDRWVEESDIKDLVYLQTIVKEVLRLYPPGPLLVPHENVEDCVVSGYHIPKGTRLFANVMKLQRDPKLWSNPDKFDPERFFAADIDFRGQHYEFIPFGSGRRSCPGMTYAMQVEHLTIAHLIQGFNYKTPNDEPLDMKEGAGLTIRKVNPIEVVITPRLTPELY	100%	did not alter enzyme activity				
Plant 817: CYP82E10 mutant enzyme A410T (mutation G1228A) from plant 817 (protein, listed as Nicotiana tabacum, CYP82E10 A410T) MVSPVEAIVGLVTLTLLFYFIRTKKSQKPSKPLPPKIPGGWPVIGHLFYFDDDSDDRPLARKLGDLADKYGPVFTFRLGLPLVLVVSSYEAIKDCFSTNDAIFSNRPAFLYGEYLGYNNAMLFLTKYGPYWRKNRKLVIQEVLCASRLEKLKHVRFGEIQTSIKNLYTRIDGNSSTINLTDWLEELNFGLIVKMIAGKNYESGKGDEQVERFRKAFKDFIILSMEFVLWDAFPIPLFKWVDFQGHVKAMKRTFKDIDSVFQNWLEEHVKKKEKMEVNAEGNEQDFIDVVLSKMSNEYLDEGYSRDTVIKATVFSLVLDAADTVALHMNWGMALLINNQHALKKAQEEIDKKVGKDRWVEESDIKDLVYLQTIVKEVLRLYPPGPLLVPHENVEDCVVSGYHIPKGTRLFTNVMKLQRDPKLWSNPDKFDPERFFAADIDFRGQHYEFIPFGSGRRSCPGMTYAMQVEHLTIAHLIQGFNYKTPNDEPLDMKEGAGLTIRKVNPIEVVITPRLTPELY	100%	did not alter enzyme activity				
Plant 2476: CYP82E10 mutant enzyme G79S (mutation G235A) from EMS treated DH98-325-6 plant 2476 (protein, listed as Nicotiana tabacum, CYP82E10 G79S Variant) MVSPVEAIVGLVTLTLLFYFIRTKKSQKPSKPLPPKIPGGWPVIGHLFYFDDDSDDRPLARKLGDLADKYGPVFTFRLSLPLVLVVSSYEAIKDCFSTNDAIFSNRPAFLYGEYLGYNNAMLFLTKYGPYWRKNRKLVIQEVLCASRLEKLKHVRFGEIQTSIKNLYTRIDGNSSTINLTDWLEELNFGLIVKMIAGKNYESGKGDEQVERFRKAFKDFIILSMEFVLWDAFPIPLFKWVDFQGHVKAMKRTFKDIDSVFQNWLEEHVKKKEKMEVNAEGNEQDFIDVVLSKMSNEYLDEGYSRDTVIKATVFSLVLDAADTVALHMNWGMALLINNQHALKKAQEEIDKKVGKDRWVEESDIKDLVYLQTIVKEVLRLYPPGPLLVPHENVEDCVVSGYHIPKGTRLFANVMKLQRDPKLWSNPDKFDPERFFAADIDFRGQHYEFIPFGSGRRSCPGMTYAMQVEHLTIAHLIQGFNYKTPNDEPLDMKEGAGLTIRKVNPIEVVITPRLTPELY	Not detected	complete enzyme inactivation			100	
CYP82E4 W329Stop: CYP82E4 variant with stop codon for tryptophan at position 329 (protein, listed as Nicotiana tabacum, CYP82E4 W329Stop Variant) MLSPIEAIVGLVTFTFLFFFLWTKKSQKPSKPLPPKIPGGWPVIGHLFHFNDDGDDRPLARKLGDLADKYGPVFTFRLGLPLVLVVSSYEAVKDCFSTNDAIFSNRPAFLYGDYLGYNNAMLFLANYGPYWRKNRKLVIQEVLSASRLEKFKHVRFARIQASIKNLYTRIDGNSSTINLTDWLEELNFGLIVKMIAGKNYESGKGDEQVERFKKAFKDFMILSMEFVLWDAFPIPLFKWVDFQGHVKAMKRTFKDIDSVFQNWLEEHINKREKMEVNAEGNEQDFIDVVLSKMSNEYLGEGYSRDTVIKATVFSLVLDAADTVALHIN						100
CYP82E4 K364N: CYP82E4 variant with asparagine for lysine at position 364 (protein, listed as Nicotiana tabacum, CYP82E4 K364N Variant) MLSPIEAIVGLVTFTFLFFFLWTKKSQKPSKPLPPKIPGGWPVIGHLFHFNDDGDDRPLARKLGDLADKYGPVFTFRLGLPLVLVVSSYEAVKDCFSTNDAIFSNRPAFLYGDYLGYNNAMLFLANYGPYWRKNRKLVIQEVLSASRLEKFKHVRFARIQASIKNLYTRIDGNSSTINLTDWLEELNFGLIVKMIAGKNYESGKGDEQVERFKKAFKDFMILSMEFVLWDAFPIPLFKWVDFQGHVKAMKRTFKDIDSVFQNWLEEHINKREKMEVNAEGNEQDFIDVVLSKMSNEYLGEGYSRDTVIKATVFSLVLDAADTVALHINWGMALLINNQKALTKAQEEIDTKVGKDRWVEESDINDLVYLQAIVKEVLRLYPPGPLLVPHENVEDCVVSGYHIPKGTRLFANVMKLQRDPKLWSDPDTFDPERFIATDIDFRGQYYKYIPFGSGRRSCPGMTYALQVEHLTMAHLIQGFNYRTPNDEPLDMKEGAGITIRKVNPVELIIAPRLAPELY						100

Reference: patent US12310324B2, “Compositions and methods for minimizing nornicotine synthesis in tobacco” (North Carolina State University, priority 2010, dated 2025)
